Laboratory results taken from US6399326 (Harvard, dated 2002).

Columns and labels:
[1] = molecular target: T1, PTP-NP (on cells transfected with PTP-NP) (mouse, UniProt P80560 28-1001); experiment: NP-AP probe on cells transfected with PTP-NP (data not shown)
T1 construct: also called PTP-NP type 1; neural and pancreatic receptor protein tyrosine phosphatase
T1 chain: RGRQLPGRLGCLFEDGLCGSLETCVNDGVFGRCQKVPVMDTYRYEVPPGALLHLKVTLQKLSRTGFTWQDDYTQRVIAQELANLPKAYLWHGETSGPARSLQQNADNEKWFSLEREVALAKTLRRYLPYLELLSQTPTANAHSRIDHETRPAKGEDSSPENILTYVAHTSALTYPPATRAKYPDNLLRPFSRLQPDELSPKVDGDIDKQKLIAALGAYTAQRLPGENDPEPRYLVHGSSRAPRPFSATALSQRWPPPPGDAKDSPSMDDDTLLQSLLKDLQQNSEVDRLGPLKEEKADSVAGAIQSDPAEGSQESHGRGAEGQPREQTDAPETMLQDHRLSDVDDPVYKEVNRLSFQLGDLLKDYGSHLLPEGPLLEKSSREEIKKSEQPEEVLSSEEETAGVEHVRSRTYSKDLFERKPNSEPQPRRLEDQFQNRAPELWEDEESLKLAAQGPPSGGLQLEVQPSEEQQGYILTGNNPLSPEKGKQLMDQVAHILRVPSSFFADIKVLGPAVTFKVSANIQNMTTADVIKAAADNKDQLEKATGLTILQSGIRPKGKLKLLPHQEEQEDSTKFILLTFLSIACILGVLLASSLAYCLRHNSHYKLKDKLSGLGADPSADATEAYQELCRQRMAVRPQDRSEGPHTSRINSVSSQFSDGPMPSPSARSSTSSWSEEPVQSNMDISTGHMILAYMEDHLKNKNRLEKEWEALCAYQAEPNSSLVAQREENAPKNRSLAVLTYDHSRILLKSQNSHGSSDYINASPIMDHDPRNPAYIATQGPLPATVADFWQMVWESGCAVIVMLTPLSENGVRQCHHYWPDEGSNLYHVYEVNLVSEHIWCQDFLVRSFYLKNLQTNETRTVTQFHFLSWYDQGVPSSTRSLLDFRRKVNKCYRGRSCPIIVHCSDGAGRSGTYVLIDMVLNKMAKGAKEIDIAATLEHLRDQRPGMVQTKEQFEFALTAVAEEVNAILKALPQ

[2] = molecular target: T2, PTP-NP extracellular domain marked with an immunoglobulin tag (mouse, UniProt P80560 28-600); experiment: in vitro binding of the two differently tagged extracellular domains (data not shown)
T2 construct: not shown: immunoglobulin tag
T2 chain: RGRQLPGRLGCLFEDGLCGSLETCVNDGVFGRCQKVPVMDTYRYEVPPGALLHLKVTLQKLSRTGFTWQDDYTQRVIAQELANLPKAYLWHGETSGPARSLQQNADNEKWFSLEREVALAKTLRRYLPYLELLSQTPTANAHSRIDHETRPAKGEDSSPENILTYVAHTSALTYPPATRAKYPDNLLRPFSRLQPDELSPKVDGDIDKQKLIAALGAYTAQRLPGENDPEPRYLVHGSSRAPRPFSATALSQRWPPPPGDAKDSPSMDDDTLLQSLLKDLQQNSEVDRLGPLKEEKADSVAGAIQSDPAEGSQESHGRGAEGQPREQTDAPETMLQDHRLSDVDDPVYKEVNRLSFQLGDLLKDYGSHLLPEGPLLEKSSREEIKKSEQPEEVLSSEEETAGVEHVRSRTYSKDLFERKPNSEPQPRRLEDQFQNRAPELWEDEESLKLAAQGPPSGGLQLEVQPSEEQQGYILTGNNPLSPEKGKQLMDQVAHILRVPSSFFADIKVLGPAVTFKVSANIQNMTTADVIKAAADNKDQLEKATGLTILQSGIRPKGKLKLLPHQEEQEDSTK

binding result [1]: no binding
binding result [2]: no binding
B1: NP-AP fusion protein (extracellular domain of PTP-NP fused to an alkaline phosphatase tag) (other)
chain: RGRQLPGRLGCLFEDGLCGSLETCVNDGVFGRCQKVPVMDTYRYEVPPGALLHLKVTLQKLSRTGFTWQDDYTQRVIAQELANLPKAYLWHGETSGPARSLQQNADNEKWFSLEREVALAKTLRRYLPYLELLSQTPTANAHSRIDHETRPAKGEDSSPENILTYVAHTSALTYPPATRAKYPDNLLRPFSRLQPDELSPKVDGDIDKQKLIAALGAYTAQRLPGENDPEPRYLVHGSSRAPRPFSATALSQRWPPPPGDAKDSPSMDDDTLLQSLLKDLQQNSEVDRLGPLKEEKADSVAGAIQSDPAEGSQESHGRGAEGQPREQTDAPETMLQDHRLSDVDDPVYKEVNRLSFQLGDLLKDYGSHLLPEGPLLEKSSREEIKKSEQPEEVLSSEEETAGVEHVRSRTYSKDLFERKPNSEPQPRRLEDQFQNRAPELWEDEESLKLAAQGPPSGGLQLEVQPSEEQQGYILTGNNPLSPEKGKQLMDQVAHILRVPSSFFADIKVLGPAVTFKVSANIQNMTTADVIKAAADNKDQLEKATGLTILQSGIRPKGKLKLLPHQEEQEDSTK
notes: Used as unpurified supernatant of transfected COS cells; also called NP-AP probe; not shown: limits and
